# Legend:
# Format in all cases: physicochemical
# [1] = Repeated preparative runs on Source 30Q and RP-HPLC C-18 columns with TRIS: pressure and fibrillation (Example 3)
# Text: (§1) Gelation/fibrillation/aggregation can be estimated by the Thioflavin T test […] resulting in a colored response the degree of gelation. Another result would be increased viscosity of the gelated solution resulting in increasing back pressure on chromatographic columns during multiple runs—this is usually the first indication of gelation taking place, […].
# An aqueous solution of N^ε-hexadecanoyl-γ-glutamyl-Lys26-Arg34-GLP-1[7-37] containing approximately 2% by weight ethanol and 10 mM of tris(hydroxymethyl)aminomethane, at pH 9.2 was made at room temperature by dissolution of an N^ε-hexadecanoyl-γ-glutamyl-Lys26-Arg34-GLP-1[7-37] isoelectric precipitate directly in the solution.
# A preparative aliquot of the solution was loaded on a large scale ion-exchange column, 45 cm I.D. (internal diameter), Source 30Q, Amersham Bioscience, at pH 9.2 and after washing the column with an buffer containing 20 mM tris and 63% by weight ethanol (pH 7.5) to remove impurities, the product was eluted by a sodium chloride gradient at pH 7.5 in a 20 mM tris buffer containing 63% by weight ethanol. The column was regenerated with 1 M NaOH, equilibrated with the pH 7.5 wash buffer, and the column was loaded again with loading solution. Eluate from the Source 30Q column was automatically diluted with water before it was loaded on another large scale column, RP-HPLC column 100 Å C-18, particle diameter 15 μm, column I.D. 45 cm, and eluted with a buffer solution containing 20 mM tris, 125 mM sodium chloride and approx. 45% by weight ethanol at pH 6.9. The column was regenerated with a 70% ethanol solution and subsequently equilibrated with a 25% ethanol solution containing 20 mM Tris.
# [2] = Repeated runs on Source 30Q and RP-HPLC columns with TRIS: pressure, analysis of column material for aggregated/fibrillated proteins (Example 5); conditions: 20 mM tris
# Text: as §1
# An aqueous solution of N^ε-hexadecanoyl-γ-glutamyl-Lys26-Arg34-GLP-1[7-37] containing approximately 2% by weight ethanol and 10 mM of tris(hydroxymethyl)aminomethane, at pH 9.2 was made at room temperature. Aliquot of the solution was loaded to an ion-exchange column, 45 cm i.d., Source 30Q, Amersham Bioscience, at pH 9.2 and after wash of the column with an neutral buffer containing 20 mM tris and 63% by weight ethanol (pH 7.5), the product was eluted by an sodium chloride gradient at pH 7.5 in a 20 mM tris buffer containing 63% by weight ethanol. The column was regenerated and loaded again with loading solution. One eluate from the Source 30Q column was automatically diluted with water before it was applied to an other column, RP-HPLC column 100 Å C-18, particle diameter i.d. 15 μm, column i.d. 45 cm, and eluted with a buffer containing 20 mM tris, 125 mM sodium chloride and approx. 45% by weight ethanol at pH 6.9.
# [3] = Room temperature stability of Arg34-GLP-1[7-37] loading solution and column eluate with TRIS, monitored by RP-HPLC (Example 1); conditions: for Arg34-GLP-1[7-37] eluate concentration: 10 mM Tris pH 9.2, RP-HPLC; for Arg34-GLP-1[7-37] concentration in loading solution: 10 mM TRIS, pH adjusted to 3.2, RP-HPLC
# Procedure: An aqueous solution of Arg34-GLP-1[7-37] containing approximately 2% by weight ethanol and 10 mM of tris(hydroxymethyl)aminomethane, at pH 9.2 was made at room temperature, pH was adjusted to 3.2. The room temperature stability of the solution was monitored by RP-HPLC.
# The solution was loaded on an ion-exchange column, Source 30S, Amersham Bioscience, at pH 3.23 and after washing the column with an acid buffer containing ethanol and citric acid, the product was eluted with an aqueous solution containing 10 mM Tris at pH 9.2. The room temperature stability of the eluate from the column was monitored by RP-HPLC (Table 1)/(FIG. 1).
# [4] = Comparative room temperature stability with glycine instead of TRIS, monitored by RP-HPLC (Comparative Example 1)
# Procedure: A comparative test with 20-200 mM glycine instead of tris(hydroxymethyl)aminomethane was done.
# An aqueous solution of Arg34-GLP-1[7-37] containing approximately 2% by weight ethanol and 20 mM of glycine, at pH 9.0 was made at room temperature, pH was adjusted to approximately 3.3.
# The solution was loaded to an ion-exchange column, Source 30S, Amersham Bioscience, at pH 3.3 and after wash of the column with an acid buffer containing ethanol and citric acid, the product was eluted with an aqueous solution containing 200 mM Glycine at pH 9.5. The stability of the eluate from the column was monitored by RP-HPLC at room temperature for 5 days.
# [5] = Repeated preparative runs on Source 30S column 20 cm I.D. with TRIS: pressure and fibrillation (Example 2)
# Procedure: as §1
# An aqueous solution of Arg34-GLP-1[7-37] containing approximately 2% by weight ethanol and 10 mM of tris(hydroxymethyl)aminomethane, at pH 9.2 was made at room temperature by dissolution of an Arg34-GLP-1[7-37] isoelectric precipitate directly in the solution. Subsequently, pH was adjusted to 3.2.
# A preparative aliquot of the solution was loaded on a large scale ion-exchange column, 20 cm I.D. (internal diameter), Source 30S, Amersham Bioscience, at pH 3.3 and after washing the column with an acid buffer containing ethanol and citric acid to remove impurities, the product was eluted with an aqueous solution containing 10 mM Tris at pH 9.2. The column was regenerated with 1 M NaOH, equilibrated with the acidic wash buffer, and the column was loaded again with loading solution. Eluate from the Source 30S column was automatically pH adjusted with 100 mM tris buffer pH 7.4 to pH 8.0.
# [6] = Repeated runs on Source 30S column 45 cm i.d. with TRIS: pressure, analysis of column material for aggregated/fibrillated proteins (Example 4); conditions: after 283 runs on Source 30S column, 10 mM Tris
# Procedure: as §1
# An aqueous solution of Arg34-GLP-1[7-37] containing approximately 2% by weight ethanol and 10 mM of tris(hydroxymethyl)aminomethane, at pH 9.2 was made at room temperature, pH was adjusted to 3.2.
# Aliquot of the solution was loaded to an ion-exchange column, 45 cm i.d., Source 30S, Amersham Bioscience, at pH 3.3 and after wash of the column with an acid buffer containing ethanol and citric acid, the product was eluted with an aqueous solution containing 10 mM Tris at pH 9.2. The column was regenerated and loaded again with loading solution.
# [7] = after 60 runs on both Source 30Q column and RP-HPLC column, tris buffers with ethanol
# [8] = after 77 runs on Source 30Q column, 63% ethanol
# [9] = after 60 runs on Source 30S column, 20 cm I.D., 10 mM Tris
substance,measurement,setting,value
N^ε-hexadecanoyl-γ-glutamyl-Lys26-Arg34-GLP-1[7-37],fibrillation in loading solutions and eluates,"[1]; 60 runs, Source 30Q and RP-HPLC, 10-20 mM tris",no fibrillation was observed
same,change in pressure on column,[1]; [7],no change in pressure was observed
same,fibrillation on the column,[1]; [7],no fibrillation had occurred on the column
same,aggregated/fibrillated proteins on the column material,"[2]; RP-HPLC column 100 Å C-18 after 49 runs, 125 mM NaCl, approx. 45% ethanol, pH 6.9",no observations of aggregated/fibrillated proteins
same,aggregated/fibrillated proteins on the column material,[2]; [8],no observation of aggregated/fibrillated proteins
same,change in pressure on column,[2]; [8],without change in pressure
Arg34-GLP-1[7-37],Arg34-GLP-1[7-37] eluate concentration,"[3]; Day 0, Source 30S eluate",1.4 mg/mL
same,Arg34-GLP-1[7-37] concentration in loading solution,"[3]; Day 0, approx. 2% ethanol",1.7 mg/mL
same,Arg34-GLP-1[7-37] eluate concentration,"[3]; Day 1, Source 30S eluate",1.4 mg/mL
same,Arg34-GLP-1[7-37] concentration in loading solution,"[3]; Day 1, approx. 2% ethanol",1.7 mg/mL
same,Arg34-GLP-1[7-37] eluate concentration,"[3]; Day 2, Source 30S eluate",1.4 mg/mL
same,Arg34-GLP-1[7-37] concentration in loading solution,"[3]; Day 2, approx. 2% ethanol",1.7 mg/mL
same,Arg34-GLP-1[7-37] eluate concentration,"[3]; Day 3, Source 30S eluate",1.3 mg/mL
same,Arg34-GLP-1[7-37] concentration in loading solution,"[3]; Day 5, approx. 2% ethanol",1.7 mg/mL
same,Gelation/fibrillation/aggregation,[3]; loading solution and eluate with 10 mM TRIS,not observed
same,stability at room temperature (fibrillation),"[4]; eluate, 200 mM Glycine pH 9.5",less than one day
same,stability at room temperature (fibrillation),"[4]; loading solution, 20 mM glycine, approx. 2% ethanol, pH approx. 3.3",less than one day
same,fibrillation in loading solution and eluate,"[5]; 60 runs, Source 30S, 10 mM TRIS loading solution, eluate adjusted to pH 8.0 with tris buffer",no fibrillation was observed
same,change in pressure on column,[5]; [9],no change in pressure was observed
same,fibrillation on the column,[5]; [9],no fibrillation had occurred on the column
same,change in pressure on column,[6],without change in pressure
same,proteins or aggregated/fibrillated proteins on the column material,[6],no observation of proteins or aggregated/fibrillated proteins

# — patent US8710181B2, “Use of tris(hydroxymethyl) aminomethane for the stabilization of peptides, polypeptides and proteins” (Novo Nordisk A/S, priority 2004, dated 2014)
